B1: peptide HD2 (from tick evasin EVA4) / CCL4 (biotinylated, synthetic) (parent complex)
chain 1: EEDDYTAYAPLTCYFT
chain 2: APMGSDPPTACCFSYTARKLPRNFVVDYYETSSLCSQPAVVFQTKRSKQVCADPSESWVQEYVYDLELN

Variants of: B1

Row | Variant | enrichment
1 | chain 1 EEDDYTAYNPLTCYFT [chain 1 A9N] | -4.06 log2 (difference from the parental peptide)
2 | chain 1 EEDDYTAYTPLTCYFT [chain 1 A9T] | -2.45 log2 (difference from the parental peptide)
3 | chain 1 EEDDYTAYPPLTCYFT [chain 1 A9P] | -7.37 log2 (difference from the parental peptide)
4 | chain 1 EEDDYTAYRPLTCYFT [chain 1 A9R] | -1.96 log2 (difference from the parental peptide)
5 | chain 1 EEDDYTAYWPLTCYFT [chain 1 A9W] | -3.72 log2 (difference from the parental peptide)
6 | chain 1 EEDDYTAYIPLTCYFT [chain 1 A9I] | -7.98 log2 (difference from the parental peptide)
7 | chain 1 EEDDYTAYEPLTCYFT [chain 1 A9E] | 0.657 log2 (difference from the parental peptide)
8 | chain 1 EEDDYTAYHPLTCYFT [chain 1 A9H] | -6.2 log2 (difference from the parental peptide)
9 | chain 1 EEDDYTAYSPLTCYFT [chain 1 A9S] | -0.615 log2 (difference from the parental peptide)
10 | chain 1 EEDDYTAYKPLTCYFT [chain 1 A9K] | -3.61 log2 (difference from the parental peptide)
11 | chain 1 EEDDYTAYLPLTCYFT [chain 1 A9L] | -6 log2 (difference from the parental peptide)
12 | chain 1 EEDDYTAAAPLTCYFT [chain 1 Y8A] | -1.67 log2 (difference from the parental peptide)
13 | chain 1 EEDDYTATAPLTCYFT [chain 1 Y8T] | -6.05 log2 (difference from the parental peptide)
14 | chain 1 EEDDYTASAPLTCYFT [chain 1 Y8S] | -2.96 log2 (difference from the parental peptide)
15 | chain 1 EEDDYTALAPLTCYFT [chain 1 Y8L] | -7.61 log2 (difference from the parental peptide)
16 | chain 1 EEDDYTAIAPLTCYFT [chain 1 Y8I] | -7.37 log2 (difference from the parental peptide)
17 | chain 1 EEDDYTAFAPLTCYFT [chain 1 Y8F] | 0.697 log2 (difference from the parental peptide)
18 | chain 1 EEDDYTAEAPLTCYFT [chain 1 Y8E] | -5.75 log2 (difference from the parental peptide)
19 | chain 1 EEDDYTAWAPLTCYFT [chain 1 Y8W] | -0.806 log2 (difference from the parental peptide)

Row | Variant | enrichment
20 | chain 1 EEDDYTAYADLTCYFT [chain 1 P10D] | -2.89 log2 (difference from the parental peptide)
21 | chain 1 EEDDYTAYAGLTCYFT [chain 1 P10G] | -6.62 log2 (difference from the parental peptide)
22 | chain 1 EEDDYTAYATLTCYFT [chain 1 P10T] | -7.43 log2 (difference from the parental peptide)
23 | chain 1 EEDDYTAYAQLTCYFT [chain 1 P10Q] | -4.96 log2 (difference from the parental peptide)
24 | chain 1 EEDDSTAYAPLTCYFT [chain 1 Y5S] | -5.86 log2 (difference from the parental peptide)
25 | chain 1 EEDDRTAYAPLTCYFT [chain 1 Y5R] | -5.62 log2 (difference from the parental peptide)
26 | chain 1 EEDDVTAYAPLTCYFT [chain 1 Y5V] | -5.67 log2 (difference from the parental peptide)
27 | chain 1 EEDDETAYAPLTCYFT [chain 1 Y5E] | -2.05 log2 (difference from the parental peptide)
28 | chain 1 EEDDTTAYAPLTCYFT [chain 1 Y5T] | -4.65 log2 (difference from the parental peptide)
29 | chain 1 EEDDPTAYAPLTCYFT [chain 1 Y5P] | -6.3 log2 (difference from the parental peptide)
30 | chain 1 EEDDFTAYAPLTCYFT [chain 1 Y5F] | 0.426 log2 (difference from the parental peptide)
31 | chain 1 EEDDCTAYAPLTCYFT [chain 1 Y5C] | -8.73 log2 (difference from the parental peptide)
32 | chain 1 EEDDYTAYAPLTCYRT [chain 1 F15R] | 0.256 log2 (difference from the parental peptide)
33 | chain 1 EEDDYTAYAPLTCYET [chain 1 F15E] | -1.26 log2 (difference from the parental peptide)
34 | chain 1 EEDDYTAYAPLTCYQT [chain 1 F15Q] | 0.832 log2 (difference from the parental peptide)
35 | chain 1 EEDDYTAYAPLTCYTT [chain 1 F15T] | 1.23 log2 (difference from the parental peptide)
36 | chain 1 EEDDYTAYAPLTCYHT [chain 1 F15H] | 0.795 log2 (difference from the parental peptide)
37 | chain 1 EEDDYTAYAPLTCYLT [chain 1 F15L] | 0.921 log2 (difference from the parental peptide)
38 | chain 1 EEDDYTAYAPLTCYNT [chain 1 F15N] | -0.875 log2 (difference from the parental peptide)

Row | Variant | enrichment
39 | chain 1 EEDDYTAYAPLTCYYT [chain 1 F15Y] | 0.0726 log2 (difference from the parental peptide)
40 | chain 1 EEPDYTAYAPLTCYFT [chain 1 D3P] | -2.56 log2 (difference from the parental peptide)
41 | chain 1 EEHDYTAYAPLTCYFT [chain 1 D3H] | -1.73 log2 (difference from the parental peptide)
42 | chain 1 EETDYTAYAPLTCYFT [chain 1 D3T] | -2.72 log2 (difference from the parental peptide)
43 | chain 1 EEYDYTAYAPLTCYFT [chain 1 D3Y] | -1.16 log2 (difference from the parental peptide)
44 | chain 1 EKDDYTAYAPLTCYFT [chain 1 E2K] | -3.72 log2 (difference from the parental peptide)
45 | chain 1 EADDYTAYAPLTCYFT [chain 1 E2A] | -0.79 log2 (difference from the parental peptide)
46 | chain 1 ELDDYTAYAPLTCYFT [chain 1 E2L] | -1.83 log2 (difference from the parental peptide)
47 | chain 1 ESDDYTAYAPLTCYFT [chain 1 E2S] | -2.25 log2 (difference from the parental peptide)
48 | chain 1 EDDDYTAYAPLTCYFT [chain 1 E2D] | 1.08 log2 (difference from the parental peptide)
49 | chain 1 ETDDYTAYAPLTCYFT [chain 1 E2T] | -2.75 log2 (difference from the parental peptide)
50 | chain 1 PEDDYTAYAPLTCYFT [chain 1 E1P] | -1.59 log2 (difference from the parental peptide)
51 | chain 1 AEDDYTAYAPLTCYFT [chain 1 E1A] | -0.519 log2 (difference from the parental peptide)
52 | chain 1 YEDDYTAYAPLTCYFT [chain 1 E1Y] | -1.6 log2 (difference from the parental peptide)
53 | chain 1 QEDDYTAYAPLTCYFT [chain 1 E1Q] | -0.262 log2 (difference from the parental peptide)
54 | chain 1 EEDDYTAYAPNTCYFT [chain 1 L11N] | -3.21 log2 (difference from the parental peptide)
55 | chain 1 EEDDYTAYAPHTCYFT [chain 1 L11H] | 1.71 log2 (difference from the parental peptide)
56 | chain 1 EEDDYTAYAPETCYFT [chain 1 L11E] | -2.34 log2 (difference from the parental peptide)
